Values belong to the binder of their own block, whether it stands above or below them.
Experiments:
[1] = molecular target: T1, Human FcRn expressed on MDCK II clone 15 cells (human FcRn and human B2M) (human, UniProt P55899 24-365); experiment: cell-based or functional assay
[2] = molecular target: T2, Human FcRn extracellular domain (non-covalent complex of human FcRn alpha chain extracellular domain and … (human, UniProt P55899 24-297; P61769 21-119); experiment: SPR Biacore T200, IgG4P captured by anti-human Fc, hFcRn ECD/b2M as analyte, pH 6.0, run 2
T2 construct: also called hFcRn; hFcRn alpha chain ECD region with human beta 2 microglobulin
Protocol: (§1) Biomolecular interaction analysis using surface plasmon resonance technology (SPR) was performed on a Biacore T200 system (GE Healthcare) and binding to human FcRn extracellular domain determined.
(§2) The surface was regenerated by 2×60 s 50 mM HCl at 10 μl/min for the running buffer at pH6 or by 60 s 40 mM HCl and 30 s 10 mM NaOH for the running buffer at pH7.4. The data was analysed using T200 evaluation software (version 1.0) using the 1:1 binding model with local Rmax.

[3] = molecular target: T2, Human FcRn extracellular domain …; experiment: SPR Biacore T200, IgG4P captured by anti-human Fc, hFcRn ECD/b2M as analyte, pH 7.4, mean of 3
Protocol: as §1, §2

[4] = molecular target: T1, Human FcRn expressed on MDCK II clone …; experiment: quantitative flow cytometry, AlexaFluor 488-labelled antibody on MDCK II clone 15 cells, pH 6.0, mean of n=3
Protocol: (§3) Specific binding of antibody to FcRn across a range of antibody concentrations was used to determine KD.
(§4) The final antibody concentrations ranged from 400 nM to 0.003 nM. The cells were washed in ice cold Facs buffer then analysed by flow cytometry using a Guava flow cytometer (Millipore, UK). Titration data sets were also produced for isotype control antibodies for each antibody format to determine non-specific binding. The number of moles of bound antibody was calculated using interpolated values from a standard curve generated from beads comprised of differing amounts of fluorescent dye. Geometric mean fluorescence values were determined in the flow cytometric analyses of cells and beads. Non-specific binding was subtracted from the anti-FcRn antibody values and the specific binding curve generated was analysed by non-linear regression using a one-site binding equation (Graphpad Prism®) to determine the KD. Data is representative of 3 experiments.

[5] = molecular target: T2, Human FcRn extracellular domain …; experiment: SPR Biacore T200, IgG4P captured by anti-human Fc, hFcRn ECD/b2M as analyte, pH 7.4, run 3
Protocol: as §1, §2

[6] = molecular target: T2, Human FcRn extracellular domain …; experiment: SPR Biacore T200, IgG4P captured by anti-human Fc, hFcRn ECD/b2M as analyte, pH 7.4, run 1
Protocol: as §1, §2

[7] = molecular target: T1, Human FcRn expressed on MDCK II clone …; experiment: quantitative flow cytometry, AlexaFluor 488-labelled antibody on MDCK II clone 15 cells, pH 7.4, mean of n=3
Protocol: as §3, §4

[8] = molecular target: T2, Human FcRn extracellular domain …; experiment: SPR Biacore T200, IgG4P captured by anti-human Fc, hFcRn ECD/b2M as analyte, pH 6.0, mean of 3
Protocol: as §1, §2

[9] = molecular target: T3, Cynomolgus macaque FcRn expressed on MDCK II clone 40 cells (cynomolgus macaque FcRn and B2M) (cynomolgus macaque, UniProt Q8SPV9 24-365; Q8SPW0 21-119); experiment: quantitative flow cytometry on MDCK II clone 40 cells, pH 6.0, mean of n=3
T3 construct: whole, on cells; also called Cyno FcRn
T3 sequence (Q8SPV9 24-365, chain 1 of 2): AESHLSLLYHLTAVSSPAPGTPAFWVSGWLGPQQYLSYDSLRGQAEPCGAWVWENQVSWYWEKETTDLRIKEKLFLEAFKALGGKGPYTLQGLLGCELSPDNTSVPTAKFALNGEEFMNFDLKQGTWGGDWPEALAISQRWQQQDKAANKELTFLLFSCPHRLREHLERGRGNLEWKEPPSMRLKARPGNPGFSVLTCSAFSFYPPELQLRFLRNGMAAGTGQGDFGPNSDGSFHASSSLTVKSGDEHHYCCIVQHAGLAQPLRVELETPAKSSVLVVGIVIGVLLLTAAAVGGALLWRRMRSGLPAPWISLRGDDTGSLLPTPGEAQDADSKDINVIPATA
T3 sequence (Q8SPW0 21-119, chain 2 of 2): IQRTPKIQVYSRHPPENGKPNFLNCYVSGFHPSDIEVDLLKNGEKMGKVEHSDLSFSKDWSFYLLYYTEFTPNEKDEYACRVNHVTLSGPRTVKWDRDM
Description: as §3

[10] = molecular target: T2, Human FcRn extracellular domain …; experiment: SPR Biacore T200, IgG4P captured by anti-human Fc, hFcRn ECD/b2M as analyte, pH 7.4, run 2
Protocol: as §1, §2

[11] = molecular target: T2, Human FcRn extracellular domain …; experiment: SPR Biacore T200, IgG4P captured by anti-human Fc, hFcRn ECD/b2M as analyte, pH 6.0, run 3
Protocol: as §1, §2

[12] = molecular target: T3, Cynomolgus macaque FcRn expressed on …; experiment: quantitative flow cytometry on MDCK II clone 40 cells, pH 7.4, mean of n=3
[13] = molecular target: T2, Human FcRn extracellular domain …; experiment: SPR Biacore T200, IgG4P captured by anti-human Fc, hFcRn ECD/b2M as analyte, pH 6.0, run 1
Protocol: as §1, §2

apical to basolateral transcytosis of human IgG in MDCK II clone 15 cells, EC50 [1]: 0.42 nM
B1: CA170_1638.g49 FabFv (bispecific antibody)
heavy: EVQLVESGGGLVQPGGSLRLSCAASGFSLSTYGVGVGWVRQAPGKGLEWLANIWWDDDKRYNPSLENRFTISRDNAKNSAYLQMNSLRAEDTAVYYCARTPAYYGSHPPFDYWGQGTMVTVSSASTKGPSVFPLAPSSKSTSGGTAALGCLVKDYFPEPVTVSWNSGALTSGVHTFPAVLQSSGLYSLSSVVTVPSSSLGTQTYICNVNHKPSNTKVDKKVEPKSCSGGGGSGGGGTGGGGSEVQLLESGGGLVQPGGSLRLSCAVSGIDLSNYAINWVRQAPGKCLEWIGIIWASGTTFYATWAKGRFTISRDNSKNTVYLQMNSLRAEDTAVYYCARTVPGYSTAPYFDLWGQGTLVTVSS
light: DIQMTQSPSSLSASVGDRVTITCRTSEDIYTNLAWYQQKPGKVPKLLIYVAKTLQEGVPSRFSGSGSGTHYTLTISSLQPEDVATYYCLQGFKFPWTFGGGTKVEIKRTVAAPSVFIFPPSDEQLKSGTASVVCLLNNFYPREAKVQWKVDNALQSGNSQESVTEQDSKDSTYSLSSTLTLSKADYEKHKVYACEVTHQGLSSPVTKSFNRGECGGGGSGGGGSGGGGSDIQMTQSPSSVSASVGDRVTITCQSSPSVWSNFLSWYQQKPGKAPKLLIYEASKLTSGVPSRFSGSGSGTDFTLTISSLQPEDFATYYCGGGYSSISDTTFGCGTKVEIKRT

Kd [2]: 0.126 nM
koff [2]: 0.000139 s⁻¹
kon [2]: 1.1e+06 M⁻¹ s⁻¹
Kd [3]: 0.0294 nM
koff [3]: 2.84e-05 s⁻¹
kon [3]: 967000 M⁻¹ s⁻¹
IgG recycling in MDCK II clone 15 cells, EC50 [1]: 0.31 nM
apical to basolateral transcytosis of human IgG in MDCK II clone 15 cells, EC50 [1]: 2.4 nM
Kd [4]: 0.22 nM
Kd [5]: 0.0293 nM
koff [5]: 2.82e-05 s⁻¹
kon [5]: 962000 M⁻¹ s⁻¹
Kd [6]: 0.0257 nM
koff [6]: 2.51e-05 s⁻¹
kon [6]: 975000 M⁻¹ s⁻¹
Kd [7]: 0.2 nM
Kd [8]: 0.127 nM
koff [8]: 0.000141 s⁻¹
kon [8]: 1.1e+06 M⁻¹ s⁻¹
Kd [9]: 0.43 nM
Kd [10]: 0.0332 nM
koff [10]: 3.19e-05 s⁻¹
kon [10]: 962000 M⁻¹ s⁻¹
Kd [11]: 0.127 nM
koff [11]: 0.00014 s⁻¹
kon [11]: 1.11e+06 M⁻¹ s⁻¹
Kd [12]: 0.3 nM
Kd [13]: 0.129 nM
koff [13]: 0.000143 s⁻¹
kon [13]: 1.1e+06 M⁻¹ s⁻¹
B2: CA170_1638.g49 IgG4P (antibody)
heavy: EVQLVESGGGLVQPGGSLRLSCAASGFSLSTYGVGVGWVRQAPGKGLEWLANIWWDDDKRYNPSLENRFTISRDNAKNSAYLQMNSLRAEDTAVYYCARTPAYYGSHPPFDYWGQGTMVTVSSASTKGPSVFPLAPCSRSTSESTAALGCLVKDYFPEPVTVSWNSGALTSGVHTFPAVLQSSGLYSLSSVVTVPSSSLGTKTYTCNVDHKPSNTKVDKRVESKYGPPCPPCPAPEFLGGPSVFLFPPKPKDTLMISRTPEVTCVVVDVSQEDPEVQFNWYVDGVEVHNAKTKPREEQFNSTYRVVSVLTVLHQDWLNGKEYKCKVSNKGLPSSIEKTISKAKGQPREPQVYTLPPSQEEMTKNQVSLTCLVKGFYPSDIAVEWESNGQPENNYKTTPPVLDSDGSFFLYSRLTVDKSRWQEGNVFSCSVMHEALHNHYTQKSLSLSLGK
light: DIQMTQSPSSLSASVGDRVTITCRTSEDIYTNLAWYQQKPGKVPKLLIYVAKTLQEGVPSRFSGSGSGTHYTLTISSLQPEDVATYYCLQGFKFPWTFGGGTKVEIKRTVAAPSVFIFPPSDEQLKSGTASVVCLLNNFYPREAKVQWKVDNALQSGNSQESVTEQDSKDSTYSLSSTLTLSKADYEKHKVYACEVTHQGLSSPVTKSFNRGEC
notes: In the flow cytometry assays the antibody was labelled with AlexaFluor 488; also called 1638.49 g IgG4

Source: patent publication US20190270811A1 (UCB, published 2019)
